Assays:
[1] = target: SuSy3-HIS protein (tomato sucrose synthase SuSy3, Solyc07g042550.2.1, His-tagged, expressed in vitro and purified)
[2] = target: SlSuSy3^S11A (SuSy3 protein with the serine at position 11 mutated to alanine)
Chain of SlSuSy3^S11A (SuSy3 protein with the serine at position 11 mutated to alanine) (chain, as listed by the source S11A): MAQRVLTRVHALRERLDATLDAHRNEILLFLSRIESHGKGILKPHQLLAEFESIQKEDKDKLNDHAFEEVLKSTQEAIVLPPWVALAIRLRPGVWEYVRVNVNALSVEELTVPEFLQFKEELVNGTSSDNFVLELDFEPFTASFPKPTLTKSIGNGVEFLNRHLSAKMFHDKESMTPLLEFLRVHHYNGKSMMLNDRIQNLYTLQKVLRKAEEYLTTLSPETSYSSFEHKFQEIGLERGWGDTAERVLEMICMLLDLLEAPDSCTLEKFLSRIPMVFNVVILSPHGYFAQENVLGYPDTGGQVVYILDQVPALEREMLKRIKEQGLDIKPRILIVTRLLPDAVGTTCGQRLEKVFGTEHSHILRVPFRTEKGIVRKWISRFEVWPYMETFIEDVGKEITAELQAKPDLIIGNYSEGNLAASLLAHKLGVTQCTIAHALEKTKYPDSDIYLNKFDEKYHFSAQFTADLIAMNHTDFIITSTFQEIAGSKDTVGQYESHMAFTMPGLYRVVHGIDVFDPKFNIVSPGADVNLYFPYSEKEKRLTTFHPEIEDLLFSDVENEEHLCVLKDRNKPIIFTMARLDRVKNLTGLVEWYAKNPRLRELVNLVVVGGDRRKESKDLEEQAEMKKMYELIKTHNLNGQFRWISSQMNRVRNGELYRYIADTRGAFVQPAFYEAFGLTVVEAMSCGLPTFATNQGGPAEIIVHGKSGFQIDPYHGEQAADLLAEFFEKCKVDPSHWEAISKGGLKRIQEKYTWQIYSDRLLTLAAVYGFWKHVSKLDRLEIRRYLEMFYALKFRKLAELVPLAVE

Chain of SuSy3-HIS protein (tomato sucrose synthase SuSy3, Solyc07g042550.2.1, His-tagged, expressed in vitro and purified) (chain, as listed by the source): as the sequence (chain, as listed by the source S11A) above, with A11S counted along it

| Protein | in vitro phosphorylation (gamma-32P-ATP, SDS-PAGE, autoradiography) [1] | in vitro phosphorylation assay (autoradiography) [2] | in vitro phosphorylation assay (autoradiography) [1] | mass spectrometry of phosphorylated residues after co-incubation [1] |
| --- | --- | --- | --- | --- |
| mCDPK8-His protein without kinase activity (CDPK8 lacking two key amino acids) (protein) MGNCCGTPGNSSENKKKKNKPNPFALDYGATQASGGDGNKLVVLKDPTGHNIQEKYDLGCERGEFGVTYLCTDVDTGDKYACKSISKKKLRTAVDIDDVRREVEIMKHLPKHPNIVTLKDTYEDDNAVHIVMELCEGGELFDRIVARGHYTERAAAVIMKTIVEVVQMCHMHGVMHRDLKPENFLFGNKKETAPLKAIDFGLSVFFKPGERFNEIVGSPYYMAPEVLKRNYGPEVDVWSAGVILYILLCGVPPFWAETEQGVAQAIIRSVVDFKRDPWPKVSDNAKDLVKKMLDPDPTRRLTAQQVLEHTWLQNIKKAPNVSLGETVKARLKQFSVMNKLKKRALTIMAEFLSAEEVAGMKDAFDMMDTGKKGKINLGELKNGLQKLGHQIPDVDLQILMEAADVDGDGSLNYGEFVAVSVHLRKMANDEHLHKAFSVFDRDQSGYIEIEELRSALSDEDGGNSEEVINAIMHDVDTDKDGRISYEEFAAMMKAGTDWRKASRQYSRERFNSLSLKLMRDGSIQVGKEEGR | the mCDPK8 protein lacking two key amino acids has no kinase activity and cannot phosphorylate the SuSy3 protein |  |  |  |
| CDPK8-HIS protein (tomato calcium-dependent protein kinase 8, Solyc11g065660, His-tagged, expressed in vitro and purified) (protein) MGNCCGTPGNSSENKKKKNKPNPFALDYGATQASGGDGNKLVVLKDPTGHNIQEKYDLGCELGRGEFGVTYLCTDVDTGDKYACKSISKKKLRTAVDIDDVRREVEIMKHLPKHPNIVTLKDTYEDDNAVHIVMELCEGGELFDRIVARGHYTERAAAVIMKTIVEVVQMCHMHGVMHRDLKPENFLFGNKKETAPLKAIDFGLSVFFKPGERFNEIVGSPYYMAPEVLKRNYGPEVDVWSAGVILYILLCGVPPFWAETEQGVAQAIIRSVVDFKRDPWPKVSDNAKDLVKKMLDPDPTRRLTAQQVLEHTWLQNIKKAPNVSLGETVKARLKQFSVMNKLKKRALTIMAEFLSAEEVAGMKDAFDMMDTGKKGKINLGELKNGLQKLGHQIPDVDLQILMEAADVDGDGSLNYGEFVAVSVHLRKMANDEHLHKAFSVFDRDQSGYIEIEELRSALSDEDGGNSEEVINAIMHDVDTDKDGRISYEEFAAMMKAGTDWRKASRQYSRERFNSLSLKLMRDGSIQVGKEEGR | the CDPK8 protein itself has kinase activity and can phosphorylate the SuSy3 protein | there is no autoradiographic band, indicating that CDPK8 cannot phosphorylate SISuSy3^S11A | CDPK8 can phosphorylate the serine at position 11 (S11) of the SuSy3 protein | 14 amino acid residues on the SuSy3 protein can be phosphorylated by CDPK8 protein, and the sites are T7, S11, T19, S152, S165, S174, T176, S191, S219, S360, T430, S535, T543, and S706 in sequence |

Reference: patent publication US20260103719
